One data set relates to T1, DER-NorFES-KGY-DER.
T1 sequence: DAIPXSIPKGY

The test system of data set [1] is T2, Fl-NorFES-KGY-Fl (fluorescein-NorFES-fluorescein).
T2 sequence: DAIPXSIPKGY

For the next data set, the system named is T3, 6-TMR-NorFES-KGY-6-TMR.
T3 sequence: DAIPXSIPKGY

In another data set the test system is T4, 6-TMR-K-NorFES-KGY-DER.
T4 sequence: KDAIPXSIPKGY

For another data set, the system named is T5, 6-TMR-NorFES-KGY-DER.
T5 sequence: DAIPXSIPKGY

A further data set has as its system T6, 6-TMR-K-NorFES-KGY-6-TMR.
T6 sequence: KDAIPXSIPKGY

Turning to elastase, the T1/2 (cleavage rate) turned out to be 2.53 min with DER-NorFES-KGY-DER; 0.3 min in data set [1]; 0.733 min in the data set with 6-TMR-NorFES-KGY-6-TMR; 2.08 min with 6-TMR-K-NorFES-KGY-DER; 1.33 min in the data set on 6-TMR-NorFES-KGY-DER; 1.4 min in the data set with 6-TMR-K-NorFES-KGY-6-TMR.

The values above are taken from patent US20090325168.
